Data from patent publication US20230125550A1 (ARCELLX, published 2023).

B1: SEQ ID NO 700 (designed binder)
chain: MGSWNEFYDRLSAIYFRLQALGGSEAELAAFEKEIAAFESELQAYKGKGNPEVEHLRWYAADIRMILQAYRHN
B2: SEQ ID NO 701 (designed binder)
chain: MGSWNEFYDRLSAIYFRLQALGGFEAELAAFEKEIAAFESELQAYKGKGNPEVEHLRWYAADIRMILQAYRHN
B3: SEQ ID NO 699 (designed binder)
chain: MGSWYEFYDRLSAIYARLQALGGSEAELAAFEKEIAAFESELQAYKGKGNPEVEDLRWYAADIRYMLQAYRHN
B4: SEQ ID NO 698 (designed binder)
chain: MGSWYEFYNRLSAIYARLQALGGSEAELAAFEKEIAAFESELQAYKGKGNPEVEDLRWYAADIRYMLQAYRHN
B5: SEQ ID NO 677 (designed binder)
chain: MGSWGEFWARLEAIWIRLDALGGSEAELAAFEKEIAAFESELQAYKGKGNPEVEWLREEAADIRRSLQAYRHN
B6: SEQ ID NO 697 (designed binder)
chain: MGSWVEFWHRLDAIKARLNALGGSEAELAAFEKEIAAFESELQAYKGKGNPEVEDLRWYAADFRLILQAYRHN
B7: SEQ ID NO 696 (designed binder)
chain: MGSWWEFESRLDAIFMRLTALGGSEAELAAFEKEIAAFESELQAYKGKGNPEVEDLREDAAFIREFLQAYRHN
B8: SEQ ID NO 733 (designed binder)
chain: MGSWFEFWDRLDAIEDRLYALGGSEAELAAFEKEIAAFESELQAYKGKGNPEVEELRDEAAWIRGTLQAYRHN
B9: SEQ ID NO 725 (designed binder)
chain: MGSWYEFEHRLDAIYDRLWALGGSEAELAAFEKEIAAFESELQAYKGKGNPEVEWLREEAAWIRLWLQAYRHN
B10: SEQ ID NO 714 (designed binder)
chain: MGSWVEFESRLAAIEHRLWALGGSEAELAAFEKEIAAFESELQAYKGKGNPEVEELREYAAEIRDWLQAYRHN
B11: SEQ ID NO 708 (designed binder)
chain: MGSWTEFEWRLYAIEDRLMALGGSEAELAAFEKEIAAFESELQAYKGKGNPEVEFLRDEAADIRQYLQAYRHN
B12: SEQ ID NO 724 (designed binder)
chain: MGSWYEFENRLGAIGDRLWALGGSEAELAAFEKEIAAFESELQAYKGKGNPEVEWLRDEAAYIRAVLQAYRHN
B13: SEQ ID NO 727 (designed binder)
chain: MGSWVEFENRLEAIENRLWALGGSEAELAAFEKEIAAFESELQAYKGKGNPEVEWLREDAAQIRMMLQAYRHN
B14: SEQ ID NO 729 (designed binder)
chain: MGSWFEFEWRLEAIFDRLYALGGSEAELAAFEKEIAAFESELQAYKGKGNPEVEVLRAEAAEIRLRLQAYRHN
B15: SEQ ID NO 713 (designed binder)
chain: MGSWYEFWDRLEAIEDRLWALGGSEAELAAFEKEIAAFESELQAYKGKGNPEVEFLRYSAAEIRYQLQAYRHN
B16: SEQ ID NO 720 (designed binder)
chain: MGSWYEFWDRLEAIEERLWALGGSEAELAAFEKEIAAFESELQAYKGKGNPEVEYLRLEAADIRRILQAYRHN
B17: SEQ ID NO 740 (designed binder)
chain: MGSWIEFEDRLEAIEDRLFALGGSEAELAAFEKEIAAFESELQAYKGKGNPEVEWLRQEAAEIRLMLQAYRHN
B18: SEQ ID NO 726 (designed binder)
chain: MGSWYEFEWRLDAIYDRLGALGGSEAELAAFEKEIAAFESELQAYKGKGNPEVEWLREDAAEIRALLQAYRHN
B19: SEQ ID NO 717 (designed binder)
chain: MGSWYEFEWRLMAIEDRLWALGGSEAELAAFEKEIAAFESELQAYKGKGNPEVEYLRHEAAEIRDVLQAYRHN
B20: SEQ ID NO 728 (designed binder)
chain: MGSWYEFEERLEAIEDRLWALGGSEAELAAFEKEIAAFESELQAYKGKGNPEVEWLREQAAFIRTMLQAYRHN
B21: SEQ ID NO 738 (designed binder)
chain: MGSWFEFEIRLEAIEDRLFALGGSEAELAAFEKEIAAFESELQAYKGKGNPEVEFLRDEAAEIRQVLQAYRHN
B22: SEQ ID NO 706 (designed binder)
chain: MGSWYEFADRLWAIEDRLWALGGSEAELAAFEKEIAAFESELQAYKGKGNPEVEFLRYYAADIRWVLQAYRHN
B23: SEQ ID NO 715 (designed binder)
chain: MGSWWEFEHRLFAIEDRLWALGGSEAELAAFEKEIAAFESELQAYKGKGNPEVEFLRDYAAEIRDYLQAYRHN
B24: SEQ ID NO 734 (designed binder)
chain: MGSWEEFTDRLWAIEDRLYALGGSEAELAAFEKEIAAFESELQAYKGKGNPEVEWLRDEAAFIRKSLQAYRHN
B25: SEQ ID NO 721 (designed binder)
chain: MGSWYEFEERLWAIEERLYALGGSEAELAAFEKEIAAFESELQAYKGKGNPEVEYLRYEAAWIRDFLQAYRHN
B26: SEQ ID NO 709 (designed binder)
chain: MGSWIEFESRLWAIEDRLLALGGSEAELAAFEKEIAAFESELQAYKGKGNPEVEFLRLEAADIREDLQAYRHN
B27: SEQ ID NO 723 (designed binder)
chain: MGSWYEFEYRLEAIEDRLWALGGSEAELAAFEKEIAAFESELQAYKGKGNPEVEYLREEAAWIRVWLQAYRHN
B28: SEQ ID NO 722 (designed binder)
chain: MGSWYEFENRLEAIEERLWALGGSEAELAAFEKEIAAFESELQAYKGKGNPEVEMLREEAAFIRDWLQAYRHN
B29: SEQ ID NO 710 (designed binder)
chain: MGSWFEFEDRLDAIWDRLWALGGSEAELAAFEKEIAAFESELQAYKGKGNPEVEFLRMDAAMIRYILQAYRHN
B30: SEQ ID NO 707 (designed binder)
chain: MGSWYEFEERLYAIEDRLYALGGSEAELAAFEKEIAAFESELQAYKGKGNPEVEFLRQEAADIRLMLQAYRHN
B31: SEQ ID NO 732 (designed binder)
chain: MGSWIEFWDRLEAIEDRLWALGGSEAELAAFEKEIAAFESELQAYKGKGNPEVEELRDEAAWIRDSLQAYRHN
B32: SEQ ID NO 718 (designed binder)
chain: MGSWYEFYNRLDAIEDRLWALGGSEAELAAFEKEIAAFESELQAYKGKGNPEVEYLRQEAADIRGQLQAYRHN
B33: SEQ ID NO 716 (designed binder)
chain: MGSWYEFDSRLMAIEDRLWALGGSEAELAAFEKEIAAFESELQAYKGKGNPEVEYLRQEAAEIRMILQAYRHN
B34: SEQ ID NO 735 (designed binder)
chain: MGSWVEFVDRLEAIEDRLFALGGSEAELAAFEKEIAAFESELQAYKGKGNPEVEFLRDQAAYIRFMLQAYRHN
B35: SEQ ID NO 711 (designed binder)
chain: MGSWEEFEDRLWAIEDRLWALGGSEAELAAFEKEIAAFESELQAYKGKGNPEVEILRYDAAYIREILQAYRHN
B36: SEQ ID NO 705 (designed binder)
chain: MGSWVEFWDRLWAIEDRLWALGGSEAELAAFEKEIAAFESELQAYKGKGNPEVEHLRHYAADIRVWLQAYRHN
B37: SEQ ID NO 737 (designed binder)
chain: MGSWWEFEMRLEAIEDRLFALGGSEAELAAFEKEIAAFESELQAYKGKGNPEVESLRWEAAFIRDILQAYRHN
B38: SEQ ID NO 739 (designed binder)
chain: MGSWYEFYQRLEAIEDRLFALGGSEAELAAFEKEIAAFESELQAYKGKGNPEVEWLRDEAAEIRVVLQAYRHN
B39: SEQ ID NO 719 (designed binder)
chain: MGSWWEFHDRLEAIEDRLWALGGSEAELAAFEKEIAAFESELQAYKGKGNPEVEYLRIEAADIRRQLQAYRHN
B40: SEQ ID NO 691 (designed binder)
chain: MGSWYEFEDRLDAIQWRLWALGGSEAELAAFEKEIAAFESELQAYKGKGNPEVEFLRESAANIRQHLQAYRHN
B41: SEQ ID NO 692 (designed binder)
chain: MGSWSEFEYRLFAIENRLDALGGSEAELAAFEKEIAAFESELQAYKGKGNPEVEFLREEAAMIRQLLQAYRHN

Target: T1, recombinant human CD123-Fc (human, UniProt P26951 19-305)
T1 construct: not shown: Fc part of CD123-Fc
T1 sequence: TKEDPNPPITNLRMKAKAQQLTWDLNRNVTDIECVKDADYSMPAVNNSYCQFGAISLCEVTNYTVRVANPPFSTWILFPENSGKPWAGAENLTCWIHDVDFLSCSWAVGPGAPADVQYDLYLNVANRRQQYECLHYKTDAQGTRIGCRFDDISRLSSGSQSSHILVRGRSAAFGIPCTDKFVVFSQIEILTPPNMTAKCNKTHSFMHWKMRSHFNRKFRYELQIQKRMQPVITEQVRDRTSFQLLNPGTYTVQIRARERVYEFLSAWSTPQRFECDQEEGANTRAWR
Assay: phage ELISA, A450 target/A450 IgG1-Fc
Outline: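 Phage were rescued in 96-well format with VCSM13 helper phage from individual phagemid colonies picked from panning output. Plates were coated with 1.3 microg/ml goat anti-human IgG1-Fc antibody, then 5 nM recombinant human target or IgG1-Fc, then 50 microl phage diluted 5× in ELISA blocking buffer. Binding was detected with HRP-conjugated anti-M13 antibody at 450 nm. The ELISA ratio is target over IgG1-Fc absorbance, averaged across all screened wells holding that clone.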

**Q.** How did the ELISA_avg turn out when B1 was run?
**A.** Its ELISA_avg is 10.6 ratio.

**Q.** B2 was tested. Which ELISA_avg did it give?
**A.** The ELISA_avg was 9 ratio.

**Q.** How did the ELISA_avg turn out when B3 was run?
**A.** Its ELISA_avg is 5.3 ratio.

**Q.** For B4, which ELISA_avg is on record?
**A.** The ELISA_avg was 10.6 ratio.

**Q.** B5 was tested. Which ELISA_avg did it give?
**A.** Its ELISA_avg is 15 ratio.

**Q.** How did the ELISA_avg turn out when B6 was run?
**A.** Its ELISA_avg is 3.5 ratio.

**Q.** For B7, which ELISA_avg is on record?
**A.** The ELISA_avg was 3.7 ratio.

**Q.** How did the ELISA_avg turn out when B8 was run?
**A.** The ELISA_avg was 4.9 ratio.

**Q.** Which ELISA_avg does the source give for B9 here?
**A.** Its ELISA_avg is 6.3 ratio.

**Q.** Which ELISA_avg does the source give for B10 here?
**A.** The ELISA_avg was 3.7 ratio.

**Q.** B11 was tested. Which ELISA_avg did it give?
**A.** Its ELISA_avg is 4.2 ratio.

**Q.** With B12 as the binder, how does the ELISA_avg read?
**A.** Its ELISA_avg is 4.8 ratio.

**Q.** Which ELISA_avg does the source give for B13 here?
**A.** The ELISA_avg was 6.2 ratio.

**Q.** For B14, which ELISA_avg is on record?
**A.** Its ELISA_avg is 6.9 ratio.

**Q.** Which ELISA_avg does the source give for B15 here?
**A.** The ELISA_avg was 4.2 ratio.

**Q.** B16 was tested. Which ELISA_avg did it give?
**A.** The ELISA_avg was 4.6 ratio.

**Q.** B17 was tested. Which ELISA_avg did it give?
**A.** Its ELISA_avg is 21.8 ratio.

**Q.** How did the ELISA_avg turn out when B18 was run?
**A.** Its ELISA_avg is 6 ratio.

**Q.** B19 was tested. Which ELISA_avg did it give?
**A.** Its ELISA_avg is 3.4 ratio.

**Q.** Which ELISA_avg does the source give for B20 here?
**A.** The ELISA_avg was 6 ratio.

**Q.** B21 was tested. Which ELISA_avg did it give?
**A.** Its ELISA_avg is 3 ratio.

**Q.** For B22, which ELISA_avg is on record?
**A.** Its ELISA_avg is 4 ratio.

**Q.** How did the ELISA_avg turn out when B23 was run?
**A.** The ELISA_avg was 7.6 ratio.

**Q.** For B24, which ELISA_avg is on record?
**A.** Its ELISA_avg is 8.9 ratio.

**Q.** B25 was tested. Which ELISA_avg did it give?
**A.** The ELISA_avg was 5.4 ratio.

**Q.** B26 was tested. Which ELISA_avg did it give?
**A.** The ELISA_avg was 8.7 ratio.

**Q.** For B27, which ELISA_avg is on record?
**A.** The ELISA_avg was 6.2 ratio.

**Q.** How did the ELISA_avg turn out when B28 was run?
**A.** Its ELISA_avg is 6.1 ratio.

**Q.** With B29 as the binder, how does the ELISA_avg read?
**A.** The ELISA_avg was 5.1 ratio.

**Q.** For B30, which ELISA_avg is on record?
**A.** The ELISA_avg was 11.5 ratio.

**Q.** For B31, which ELISA_avg is on record?
**A.** Its ELISA_avg is 4.5 ratio.

**Q.** B32 was tested. Which ELISA_avg did it give?
**A.** The ELISA_avg was 11.3 ratio.

**Q.** Which ELISA_avg does the source give for B33 here?
**A.** The ELISA_avg was 3.2 ratio.

**Q.** For B34, which ELISA_avg is on record?
**A.** The ELISA_avg was 4.9 ratio.

**Q.** Which ELISA_avg does the source give for B35 here?
**A.** The ELISA_avg was 4.1 ratio.

**Q.** How did the ELISA_avg turn out when B36 was run?
**A.** The ELISA_avg was 4.5 ratio.

**Q.** How did the ELISA_avg turn out when B37 was run?
**A.** The ELISA_avg was 4 ratio.

**Q.** For B38, which ELISA_avg is on record?
**A.** Its ELISA_avg is 3 ratio.

**Q.** B39 was tested. Which ELISA_avg did it give?
**A.** The ELISA_avg was 6.4 ratio.

**Q.** Which ELISA_avg does the source give for B40 here?
**A.** The ELISA_avg was 6.3 ratio.

**Q.** Which ELISA_avg does the source give for B41 here?
**A.** The ELISA_avg was 3.2 ratio.
